# Experimental data taken from paper PMC11410209.
# Target: 2526 IgG3
# Experiment: ELISA
# Conditions: read at the highest mAb concentration, 10 µg/ml; parent: est. 4.0; read off a plot
substance,measurement,value
BG505.SOSIP with a glycan at position 332 (Fig 5C) N332T,response,3.1 Abs (450nm)
